Laboratory results as given in IntAct's records for PubMed 31515488.

B1: Protein sprouty homolog 1 (Homo sapiens), O43609 (parent)
chain: MDPQNQHGSGSSLVVIQQPSLDSRQRLDYEREIQPTAILSLDQIKAIRGSNEYTEGPSVVKRPAPRTAPRQEKHERTHEIIPINVNNNYEHRHTSHLGHAVLPSNARGPILSRSTSTGSAASSGSNSSASSEQGLLGRSPPTRPVPGHRSERAIRTQPKQLIVDDLKGSLKEDLTQHKFICEQCGKCKCGECTAPRTLPSCLACNRQCLCSAESMVEYGTCMCLVKGIFYHCSNDDEGDSYSDNPCSCSQSHCCSRYLCMGAMSLFLPCLLCYPPAKGCLKLCRRCYDWIHRPGCRCKNSNTVYCKLESCPSRGQGKPS
partner: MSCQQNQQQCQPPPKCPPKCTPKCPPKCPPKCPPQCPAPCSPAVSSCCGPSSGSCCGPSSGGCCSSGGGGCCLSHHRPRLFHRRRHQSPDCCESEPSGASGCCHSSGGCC
B2: Ubiquitin-conjugating enzyme E2 E3 (Homo sapiens), Q969T4 (parent)
chain: MSSDRQRSDDESPSTSSGSSDADQRDPAAPEPEEQEERKPSATQQKKNTKLSSKTTAKLSTSAKRIQKELAEITLDPPPNCSAGPKGDNIYEWRSTILGPPGSVYEGGVFFLDITFSSDYPFKPPKVTFRTRIYHCNINSQGVICLDILKDNWSPALTISKVLLSICSLLTDCNPADPLVGSIATQYLTNRAEHDRIARQWTKRYAT
partner: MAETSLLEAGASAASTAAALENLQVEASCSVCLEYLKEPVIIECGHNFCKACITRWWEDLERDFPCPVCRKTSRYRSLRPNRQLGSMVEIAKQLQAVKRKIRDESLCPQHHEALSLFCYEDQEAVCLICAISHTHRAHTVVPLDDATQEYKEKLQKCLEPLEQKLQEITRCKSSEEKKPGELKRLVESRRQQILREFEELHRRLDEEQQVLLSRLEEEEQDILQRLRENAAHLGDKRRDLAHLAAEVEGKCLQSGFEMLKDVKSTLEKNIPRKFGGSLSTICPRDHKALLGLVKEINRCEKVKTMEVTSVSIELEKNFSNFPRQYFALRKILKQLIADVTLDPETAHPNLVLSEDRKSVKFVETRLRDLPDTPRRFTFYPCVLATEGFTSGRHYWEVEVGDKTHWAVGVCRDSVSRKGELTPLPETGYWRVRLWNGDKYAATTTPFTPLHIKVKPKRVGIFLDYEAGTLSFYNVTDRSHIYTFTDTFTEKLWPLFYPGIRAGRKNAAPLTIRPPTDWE
B3: Cyclin-D1-binding protein 1 (Homo sapiens), O95273 (parent)
chain: MASATAPAAAVPTLASPLEQLRHLAEELRLLLPRVRVGEAQETTEEFNREMFWRRLNEAAVTVSREATTLTIVFSQLPLPSPQETQKFCEQVHAAIKAFIAVYYLLPKDQGITLRKLVRGATLDIVDGMAQLMEVLSVTPTQSPENNDLISYNSVWVACQQMPQIPRDNKAAALLMLTKNVDFVKDAHEEMEQAVEECDPYSGLLNDTEENNSDNHNHEDDVLGFPSNQDLYWSEDDQELIIPCLALVRASKACLKKIRMLVAENGKKDQVAQLDDIVDISDEISPSVDDLALSIYPPMCHLTVRINSAKLVSVLKKALEITKASHVTPQPEDSWIPLLINAIDHCMNRIKELTQSELEL
partner: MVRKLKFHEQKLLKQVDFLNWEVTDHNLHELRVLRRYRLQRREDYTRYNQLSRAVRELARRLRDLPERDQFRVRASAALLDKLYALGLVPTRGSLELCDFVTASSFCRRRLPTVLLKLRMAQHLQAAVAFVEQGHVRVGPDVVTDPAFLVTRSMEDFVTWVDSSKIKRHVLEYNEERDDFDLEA
B4: Syntenin-2 (Homo sapiens), Q9H190 (parent)
chain: MSSLYPSLEDLKVDQAIQAQVRASPKMPALPVQATAISPPPVLYPNLAELENYMGLSLSSQEVQESLLQIPEGDSTAVSGPGPGQMVAPVTGYSLGVRRAEIKPGVREIHLCKDERGKTGLRLRKVDQGLFVQLVQANTPASLVGLRFGDQLLQIDGRDCAGWSSHKAHQVVKKASGDKIVVVVRDRPFQRTVTMHKDSMGHVGFVIKKGKIVSLVKGSSAARNGLLTNHYVCEVDGQNVIGLKDKKIMEILATAGNVVTLTIIPSVIYEHMVKKLPPVLLHHTMDHSIPDA
partner: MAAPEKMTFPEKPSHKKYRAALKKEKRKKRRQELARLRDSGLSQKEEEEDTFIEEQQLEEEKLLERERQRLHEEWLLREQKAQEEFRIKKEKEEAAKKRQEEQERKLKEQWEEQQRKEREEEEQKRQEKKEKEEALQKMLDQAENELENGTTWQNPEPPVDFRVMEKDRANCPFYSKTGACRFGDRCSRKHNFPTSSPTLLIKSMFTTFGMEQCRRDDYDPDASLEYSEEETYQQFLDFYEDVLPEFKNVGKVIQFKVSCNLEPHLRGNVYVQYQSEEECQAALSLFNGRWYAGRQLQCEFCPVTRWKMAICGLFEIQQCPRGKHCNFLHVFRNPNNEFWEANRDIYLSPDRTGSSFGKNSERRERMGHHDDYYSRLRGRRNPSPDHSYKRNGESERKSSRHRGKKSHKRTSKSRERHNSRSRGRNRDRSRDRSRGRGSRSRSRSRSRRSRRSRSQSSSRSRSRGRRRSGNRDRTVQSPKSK
B5: Protein LDOC1 (Homo sapiens), O95751 (parent)
chain: MVDELVLLLHALLMRHRALSIENSQLMEQLRLLVCERASLLRQVRPPSCPVPFPETFNGESSRLPEFIVQTASYMLVNENRFCNDAMKVAFLISLLTGEAEEWVVPYIEMDSPILGDYRAFLDEMKQCFGWDDDEDDDDEEEEDDY
partner: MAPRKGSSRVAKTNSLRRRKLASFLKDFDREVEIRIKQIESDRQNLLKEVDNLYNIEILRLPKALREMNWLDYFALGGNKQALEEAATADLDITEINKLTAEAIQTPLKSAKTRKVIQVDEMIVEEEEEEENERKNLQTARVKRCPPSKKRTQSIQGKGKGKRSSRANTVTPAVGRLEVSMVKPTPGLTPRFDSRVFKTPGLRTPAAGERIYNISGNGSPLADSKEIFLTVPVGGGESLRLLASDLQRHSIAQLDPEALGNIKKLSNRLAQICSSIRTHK
B6: Huntingtin-interacting protein 1 (Homo sapiens), O00291 (parent)
chain: MDRMASSMKQVPNPLPKVLSRRGVGAGLEAAERESFERTQTVSINKAINTQEVAVKEKHARTCILGTHHEKGAQTFWSVVNRLPLSSNAVLCWKFCHVFHKLLRDGHPNVLKDSLRYRNELSDMSRMWGHLSEGYGQLCSIYLKLLRTKMEYHTKNPRFPGNLQMSDRQLDEAGESDVNNFFQLTVEMFDYLECELNLFQTVFNSLDMSRSVSVTAAGQCRLAPLIQVILDCSHLYDYTVKLLFKLHSCLPADTLQGHRDRFMEQFTKLKDLFYRSSNLQYFKRLIQIPQLPENPPNFLRASALSEHISPVVVIPAEASSPDSEPVLEKDDLMDMDASQQNLFDNKFDDIFGSSFSSDPFNFNSQNGVNKDEKDHLIERLYREISGLKAQLENMKTESQRVVLQLKGHVSELEADLAEQQHLRQQAADDCEFLRAELDELRRQREDTEKAQRSLSEIERKAQANEQRYSKLKEKYSELVQNHADLLRKNAEVTKQVSMARQAQVDLEREKKELEDSLERISDQGQRKTQEQLEVLESLKQELATSQRELQVLQGSLETSAQSEANWAAEFAELEKERDSLVSGAAHREEELSALRKELQDTQLKLASTEESMCQLAKDQRKMLLVGSRKAAEQVIQDALNQLEEPPLISCAGSADHLLSTVTSISSCIEQLEKSWSQYLACPEDISGLLHSITLLAHLTSDAIAHGATTCLRAPPEPADSLTEACKQYGRETLAYLASLEEEGSLENADSTAMRNCLSKIKAIGEELLPRGLDIKQEELGDLVDKEMAATSAAIETATARIEEMLSKSRAGDTGVKLEVNERILGCCTSLMQAIQVLIVASKDLQREIVESGRGTASPKEFYAKNSRWTEGLISASKAVGWGATVMVDAADLVVQGRGKFEELMVCSHEIAASTAQLVAASKVKADKDSPNLAQLQQASRGVNQATAGVVASTISGKSQIEETDNMDFSSMTLTQIKRQEMDSQVRVLELENELQKERQKLGELRKKHYELAGVAEGWEEGTEASPPTLQEVVTEKE
partner: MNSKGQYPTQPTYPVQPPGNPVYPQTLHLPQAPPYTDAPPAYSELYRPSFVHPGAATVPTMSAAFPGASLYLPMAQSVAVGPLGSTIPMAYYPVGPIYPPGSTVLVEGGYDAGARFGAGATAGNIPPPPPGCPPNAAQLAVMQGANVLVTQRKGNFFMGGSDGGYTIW
B7: Hematopoietic prostaglandin D synthase (Homo sapiens), O60760 (parent)
chain: MPNYKLTYFNMRGRAEIIRYIFAYLDIQYEDHRIEQADWPEIKSTLPFGKIPILEVDGLTLHQSLAIARYLTKNTDLAGNTEMEQCHVDAIVDTLDDFMSCFPWAEKKQDVKEQMFNELLTYNAPHLMQDLDTYLGGREWLIGNSVTWADFYWEICSTTLLVFKPDLLDNHPRLVTLRKKVQAIPAVANWIKRRPQTKL
partner: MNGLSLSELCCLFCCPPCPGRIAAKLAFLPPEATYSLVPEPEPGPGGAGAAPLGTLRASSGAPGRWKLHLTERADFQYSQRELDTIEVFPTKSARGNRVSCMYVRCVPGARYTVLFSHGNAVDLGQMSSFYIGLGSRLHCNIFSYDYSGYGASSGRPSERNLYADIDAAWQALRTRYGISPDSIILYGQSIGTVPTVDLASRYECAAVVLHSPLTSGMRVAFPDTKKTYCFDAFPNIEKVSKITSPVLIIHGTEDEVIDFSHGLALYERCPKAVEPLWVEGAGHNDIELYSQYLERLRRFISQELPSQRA

Variants of: B1
Details: with lce2d_human LCE2D

effect of a mutation on the interaction	Variant
with no effect	A37T
with no effect	R296K
with no effect	R24H

Variants of: B2
Details: with tri39_human TRIM39, Q9HCM9

effect of a mutation on the interaction	Variant
with no effect	S117T

Variants of: B3
Details: with imp3_human IMP3, Q9NV31

effect of a mutation on the interaction	Variant
disrupting interaction strength	I277T

Variants of: B4
Details: with ZRSR2, Q15696

effect of a mutation on the interaction	Variant
with no effect	V182M
disrupting interaction strength	G242R
disrupting interaction strength	G225R

Variants of: B5
Details: with borea_human CDCA8, Q53HL2

effect of a mutation on the interaction	Variant
disrupting interaction strength	L12H

Variants of: B6
Details: with dazp2_human DAZAP2, Q15038

effect of a mutation on the interaction	Variant
with no effect	M263K

Variants of: B7
Details: with ab17a_human ABHD17A

effect of a mutation on the interaction	Variant
disrupting interaction strength	M128T
